Source: US20040071656A1, “Modulation of heat-shock-protein-based immunotherapies” (priority 2001, published 2004)

Columns and labels:
endogenous CD40 = target: T1, endogenous CD40 (Mus musculus, UniProt P27512); test: Binding assay with His6-tagged Hsp70 and Ni-NTA-agarose, ANA1 cell lysate; design: species or system murine; settings: His-tagged Hsp70, with or without ADP
T1 construct: endogenous CD40 in extracts of LPS-stimulated ANA1-cells; endogenous in cells; host or cells: ANA1 murine macrophage cell line, LPS-stimulated
T1 sequence (P27512 20-289): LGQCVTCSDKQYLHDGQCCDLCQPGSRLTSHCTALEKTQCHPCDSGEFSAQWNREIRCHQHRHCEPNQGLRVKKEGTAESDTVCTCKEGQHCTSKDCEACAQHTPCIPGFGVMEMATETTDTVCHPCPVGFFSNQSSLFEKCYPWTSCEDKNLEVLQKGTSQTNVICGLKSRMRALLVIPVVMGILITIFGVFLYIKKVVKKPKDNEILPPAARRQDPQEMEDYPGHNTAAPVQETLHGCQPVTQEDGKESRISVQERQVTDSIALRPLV
Description: Binding assay with His6-tagged Hsp70 and Ni-NTA-agarose. ANA1-cells were stimulated with LPS as described above and lysed in lysis buffer (150 mM Tris/HCl, ph 7,5, 1% CHAPS) for 45 min at 4° C. Cell lysate was centrifuged at 100,000 g for 15 min at 4° C. […] of the supernatant was incubated with 10 μg of His6-tagged Hsp70, preincubated with ADP and a 30-fold excess of peptide C, or mock treated, as described above for biotinylated proteins, for 30 min at 4° C. Thereafter the samples were added to 20 μl of 1% BSA-treated Ni-NTA-agarose (Quiagen) and incubated for 30 min at 4° C. Unbound protein was removed by washing the beads three times with 1 ml lysis buffer, and immobilized proteins eluted with 10 μl SDS-PAGE-sample buffer by incubation for 5 min at 95° C. Eluates were analyzed by immunoblotting using an anti-CD40 antibody (CSA-180, Stressgen).
(§1) Details for FIG. 3. […] Thereafter samples were affinity purified on glutathione-Sepharose as outlined in Experimental Procedures, subjected to SDS-PAGE and analyzed by immunoblotting with antibodies directed against Hsc70 and Hsp70 (upper lanes), and against Hsp90 (lower lanes). […] After affinity purification samples were analyzed by immunoblotting as described in A, using antibodies directed against the His6-tag. […] Protein bound to Hsp70 was analyzed by affinity purification on Ni-NTA-agarose and immunoblotting with antibodies directed against CD40.

[1] = target: T2, exoplasmic domain of human CD40 (GST-CD40) (Homo sapiens, UniProt P25942); test: GST-CD40 pull-down of endogenous heat shock proteins from Hela cell lysate; assay type: binding; settings: 80 or 400 pmol GST-CD40, immunoblot
T2 construct: The cDNA for the exoplasmic domain of CD40 (amino acids 20-212); made in house; host or cells: E. coli, pGEX-2T
Description: Binding assays with GST-CD40. For binding of endogenous Hsp70 and Hsc70 from Hela cell lysate, Hela cells were lysed as described above and centrifuged at 100,000 g at 4° C. for 1 h. 20 μl bed volume of Glutathione Sepharose 4 Fast Flow (Amersham Pharmacia) per sample were preincubated with 80 pmol or 400 pmol of GST or GST-CD40 fusion protein in 50 μl binding buffer. Unbound protein was removed by washing three times with PBS. The beads were treated with 1% BSA/PBS to avoid non-specific binding, and than incubated with 150 μl of Hela cell lysate in the presence of 2 mM DTT for 20 min at 16° C. […] 10 μl of the eluates was subjected to SDS-PAGE and analyzed by immunoblotting using an anti-Hsc/Hsp70 antibody and an anti-Hsp90: antibody (SPA822 and SPA835, Stressgen). […]
as §1

T2 sequence (P25942 20-212): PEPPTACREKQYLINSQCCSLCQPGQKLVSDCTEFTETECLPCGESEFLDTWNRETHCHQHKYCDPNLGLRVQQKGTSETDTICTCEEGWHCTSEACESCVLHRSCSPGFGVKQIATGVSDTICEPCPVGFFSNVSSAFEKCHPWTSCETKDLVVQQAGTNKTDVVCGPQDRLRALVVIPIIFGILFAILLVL

Hsp70: Recombinant human heat shock protein 70, expressed and purified as His-tagged protein
interaction with endogenous CD40 in extracts of LPS-stimulated ANA1-cells (endogenous CD40): interacted, in an ADP-dependent manner | binding to GST-CD40 from Hela-cell lysates [1]: bound to GST-CD40 in a concentration dependent manner
